Measured values: patent US11690918B2, “Pyrrolobenzodiazepine-anti-CD22 antibody conjugates” (ADC THERAPEUTICS S.A., priority 2012, dated 2023)

Columns and labels:
[1] = system: SU-DHL-1 cells; assay: In vitro cytotoxicity of ADCs, SU-DHL-1 (CD22 -ve control); format: cell-based; settings: 4 days incubation, Alamar Blue
Method: (§1) WSU-DLCL2 and SU-DHL-1 cells were from the Leibniz Institute DSMZ-German Collection of Microorganisms and Cell Cultures. Ramos and Daudi cells were from the American Type Culture Collection. Cell culture medium was RPMI 1640 supplemented with L-Glutamine and 10% FBS. Cells were grown at 37° C., 5% CO2, in a humidified incubator.
(§2) The concentration and viability of cultures of suspended cells (at up to 1×10^6/ml) were determined by mixing 1:1 with Trypan blue and counting clear (live)/blue (dead) cells with a haemocytometer. The cell suspension was diluted to the required seeding density (generally 10^5/ml) and dispensed into 96-well flat bottomed plates. For Alamar blue assay, 100 μl/well was dispensed in black-well plates. […] After incubation for 4 days, cell viability was measured by either Alamar blue or MTS assay.
(§3) AlamarBlue® (Invitrogen, catalogue number DAL1025) was dispensed (20 μl per well) into each well and incubated for 4 hours at 37° C. in the CO2-gassed incubator. Well fluorescence was measured at excitation 570 nm, emission 585 nm. Cell survival (%) was calculated from the ratio of mean fluorescence in the 4 ADC-treated wells compared to the mean fluorescence in the 4 control wells (100%).
(§4) MTS (Promega, catalogue number G5421) was dispensed (20 μl per well) into each well and incubated for 4 hours at 37° C. in the CO2-gassed incubator. Absorbance was measured at 490 nm. […]

[2] = system: Ramos xenograft; assay: In vivo anti-tumour activity, Ramos mouse xenograft model; settings: NCr nu/nu mice, single dose 1.0 mg/kg IV, FIG. 3
Method: The CD22+(ve) human Burkitt's lymphoma-derived cell line Ramos was used in a mouse xenograft model to test the in vivo efficacy of the Epratuzumab-A ADC. As a non-CD22-binding control, the anti-HIV gp120 antibody, B12, linked to A was used in the same model.
Procedures: • Set up CR female NCr nu/nu mice with l× Ramos-SPN tumor cells in 0% Matrigel sc in flank. • Cell Injection Volume is 0.1 mL/mouse. • Age at Start Date: 8 to 12 weeks. • Perform a pair match when tumors reach an average size of 100-150 mm^3 and begin treatment. • Body Weight: qd×5 then bi-wk to end • Caliper Measurement: bi-wk to end • Report any adverse reactions or death immediately. • Any individual animal with a single observation of >30% body weight loss or three consecutive measurements of >25% body weight loss will be euthanized. • Any group with two measurements of mean body weight loss of >20% or >10% mortality will stop dosing. The group is not euthanized and recovery is allowed. Within a group with >20% weight loss, individuals hitting the individual body weight loss endpoint will be euthanized. […] Animals are to be monitored individually. […]
For the calculation of group mean tumor volumes the following rule was applied: when an animal exited the study due to tumor size, the final tumor volume recorded for the animal was included with the data used to calculate the mean volume at subsequent time points. […]

[3] = system: Daudi cells; assay: In vitro cytotoxicity of ADCs, Daudi; format: cell-based; settings: FIG. 1, Alamar Blue
Method: as §1, §2, §3, §4

[4] = system: WSU-DLCL2 cells; assay: In vitro cytotoxicity of ADCs, WSU-DLCL2; format: cell-based; settings: FIG. 1, Alamar Blue
Method: as §1, §2, §3, §4

[5] = system: Ramos cells; assay: In vitro cytotoxicity of ADCs, Ramos; format: cell-based, human; settings: FIG. 1, Alamar Blue
Method: as §1, §2, §3, §4

B1: Epratuzumab-A: ADC targeted to CD22, generated by conjugating anti-CD22 antibody Epratuzumab to warhead-linker A (conjugate)
VH: QVQLVQSGAEVKKPGSSVKVSCKASGYTFTSYWLHWVRQAPGQGLEWIGYINPRNDYTEYNQNFKDKATITADESTNTAYMELSSLRSEDTAFYFCARRDITTFYWGQG
VL: DIQLTQSPSSLSASVGDRVTMSCKSSQSVLYSANHKNYLAWYQQKPGKAPKLLIYWASTRESGVPSRFSGSGSGTDFTFTISSLQPEDIATYYCHQYLSSWTFGQG
In the case of B1, the “EC50 SUDHL1” value [1] is reported as roughly 6.776 µg/mL, the “anti-tumor activity (mean tumour volume)” value [2] is reported as “most potent anti-tumor activity” and the “cytotoxicity against Daudi cells” value [3] is reported as “significant cytotoxicity”. The “cytotoxicity against WSU-DLCL2 cells” value [4] was “significant cytotoxicity” and the “cytotoxicity against Ramos cells” value [5] was “significant cytotoxicity”.
